Data published in paper PMC5737501.
Like-named read-outs stand apart in the source and are kept apart here.

Experiments:
Assay in all cases: single-molecule TIRF colocalisation imaging
[1] = biological target: H3K9me3 chromatin fiber, 12 × 601 array with 177 bp nucleosome repeat length (a177) (human) (UniProt P62805)
[2] = biological target: H3K9me3 and H4KS16ac chromatin fiber, 12 × 601 array with 177 bp NRL (a177) (human) (UniProt P62805)
[3] = biological target: H3K9me3 and H4KS16ac chromatin fiber, 12 × 601 array with 197 bp NRL (a197) (human) (UniProt P62805)
[4] = biological target: H3K9me3 chromatin fiber, 12 × 601 array with 177 bp nucleosome repeat length (a177) (human) (UniProt P62805); remark: listed apart in the source
[5] = biological target: H3K9me3 chromatin fiber, 12 × 601 array with 197 bp nucleosome repeat length (a197) (human) (UniProt P62805)

Sequence of HP1γ, labeled with Atto532 at its C-terminus (Q13185 whole entry): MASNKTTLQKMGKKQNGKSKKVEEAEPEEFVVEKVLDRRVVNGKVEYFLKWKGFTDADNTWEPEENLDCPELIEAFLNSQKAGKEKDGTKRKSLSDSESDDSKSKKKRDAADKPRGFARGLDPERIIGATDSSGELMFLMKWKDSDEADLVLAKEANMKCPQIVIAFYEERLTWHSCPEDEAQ
Sequence of HP1β, labeled with Atto532 at its C-terminus (P83916 whole entry): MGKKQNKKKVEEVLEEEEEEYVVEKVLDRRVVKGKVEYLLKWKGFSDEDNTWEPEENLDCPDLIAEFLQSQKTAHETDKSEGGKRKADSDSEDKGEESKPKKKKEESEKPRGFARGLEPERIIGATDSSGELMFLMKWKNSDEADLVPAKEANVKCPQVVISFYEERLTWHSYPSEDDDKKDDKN
Sequence of Phosphorylated HP1α (pHP1α), Atto532-labeled, phosphorylated with casein kinase 2 (P45973 whole entry): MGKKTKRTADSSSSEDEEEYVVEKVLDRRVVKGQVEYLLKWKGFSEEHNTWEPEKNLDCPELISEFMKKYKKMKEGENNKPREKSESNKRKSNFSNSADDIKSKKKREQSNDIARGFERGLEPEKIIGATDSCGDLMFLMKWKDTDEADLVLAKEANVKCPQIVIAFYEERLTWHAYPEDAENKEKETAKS
Sequence of HP1α, labeled with Atto532 at its C-terminus (P45973 whole entry): as above

Substance	kon [1]	tau off,1 (residence time, fast phase) [1]	tau off,2 (residence time, slow phase) [1]	kon [2]	tau off,1 (residence time, fast phase) [2]	tau off,2 (residence time, slow phase) [2]	kon [3]	tau off,1 (residence time, fast phase) [3]	tau off,2 (residence time, slow phase) [3]	kon [4]	tau off,1 (residence time, fast phase) [4]	tau off,2 (residence time, slow phase) [4]	kon [5]	tau off,1 (residence time, fast phase) [5]	tau off,2 (residence time, slow phase) [5]
HP1α, labeled with Atto532 at its C-terminus (from UniProt P45973 1-191) (natural protein)	360000 M⁻¹ s⁻¹	0.14 s	2.97 s	2.76e+06 M⁻¹ s⁻¹	0.19 s	1.92 s	2.25e+06 M⁻¹ s⁻¹	0.16 s	2 s	1.1e+06 M⁻¹ s⁻¹	0.19 s	3.32 s	2.51e+06 M⁻¹ s⁻¹	0.24 s	2.49 s
HP1β, labeled with Atto532 at its C-terminus (from UniProt P83916 1-185) (natural protein)										670000 M⁻¹ s⁻¹	0.19 s	3.6 s			
HP1γ, labeled with Atto532 at its C-terminus (from UniProt Q13185 1-183) (natural protein)										890000 M⁻¹ s⁻¹	0.17 s	2.64 s			
Phosphorylated HP1α (pHP1α), Atto532-labeled, phosphorylated with casein kinase 2 (from UniProt P45973 1-191) (natural protein)										1.73e+06 M⁻¹ s⁻¹	0.26 s	5.6 s			
